This assay relates to 3T3-L1 adipocytes. Briefly: Expression of lipid droplet formation-related genes and PREF-1 by real-time PCR. Format: cell-based, mouse. Particulars: rAIM 5 μg/ml. The procedure:
rAIM was loaded (5 μg/ml) on 3T3-L1 adipocytes, mRNA of lipid droplet formation-related genes (FSP27, Perilipin, and Adipophilin) was measured on day 2, day 4, and day 6 using 7500 Fast Real-Time PCR system (Invitrogen; CA, USA) and by the ΔΔCT method (each n=3).
Similarly, mRNA of PREF-1 of preadipocyte marker was also measured. The measurement value was standardized with GAPDH.
Relative expression level was determined with that on day 0 as 1.0.

We go through one molecule from US20130115220A1, “METHOD FOR PREVENTION OR TREATMENT OF METABOLIC SYNDROME” (DAINIPPON SUMITOMO PHARMA CO., LTD., priority 2010, published 2013).

B1: rAIM: recombinant AIM protein (rAIM) of mouse, HA-tagged, prepared in HEK293T cells (protein)
chain: ESPTKVQLVGGAHRCEGRVEVEHNGQWGTVCDDGWDRRDVAVVCRELNCGAVIQTPRGASYQPPASEQRVLIQGVDCNGTEDTLAQCELNYYVFDCSHEEDAGAQCENPDSDLLFIPEDVRLVDGPGHCQGRVEVLHQSQWSTVCKAGWNLQVSKVVCRQLGCGRALLTYGSCNKNTQGKGPIWMGKMSCSGQEANLRSCLLSRLENNCTHGEDTWMECEDPFELKLVGGDTPCSGRLEVLHKGSWGSVCDDNWGEKEDQVVCKQLGCGKSLHPSPKTRKIYGPGAGRIWLDDVNCSGKEQSLEFCRHRLWGYHDCTHKEDVEVICTDFDV
modifications: left off: small tags and cut ends
notes: recombinant AIM protein (rAIM) of mouse, HA-tagged, prepared in HEK293T cells
Turning to B1, the “expression of lipid droplet formation-related genes (FSP27, Perilipin, Adipophilin)” value (day 2, relative to day 0) is “decreased markedly”. For the same molecule, the “expression of preadipocyte markers (PREF-1)” value (during rAIM treatment) is “did not increase”.
